Series [1] concerns the molecule itself. As to the kind of experiment: negative-staining electron microscopy; purified protein concentrated in 25 mM CHES pH 9.0, 150 mM NaCl, 10 mM MgCl2; mica-carbon flotation, 2% sodium silico tungstate pH 7.4.
Series [2] concerns the molecule itself. The series can be described thus: AUC; sedimentation velocity (SV-AUC), 0.8 mg/ml protein, 25 mM CHES pH 9.0, 150 mM NaCl, 10 mM MgCl2, 62,000 g, 20 °C, absorbance at 280 nm, c(s) analysis with Sedfit.

B1: MreC from Pseudomonas aeruginosa lacking the TM region and the first 21 residues of its N-terminal helix, residues 36-330 (domain or fragment, Pseudomonas aeruginosa PAO1, UniProt Q9HVU1 36-330, looked up)
chain: LAEMPVRAWEGVRDQFSSRSELIAENERLKAESLLMQRRVQKLAALTEQNVRLRELLNSAALVDDKVLVSELIGVDPNPFTQRIMIDKGENDGVFVGQPVLDASGLMGQVVEVMPYTARVLLLTDTTHSIPVQVNRNGLRAIAVGTGNPERLELRYVADTADIKEGDLLVSSGLGQRFPAGYPVATVKEVIHDSGQPFAVVRAVPTAKMNRSRYVLLVFSDSRTPEQRANDAAEAQEEADKKAAAGAQAPQPAAQPAAAPSPATPAAQGAAQQPAAAPAPAPTQPAAPAANGGRR
notes: MreC, Pseudomonas aeruginosa PAO1, residues 36-330; also called MreCPa(36-330); MreCPa; not shown: GST, N-terminal, cleaved
Take B1: in series [1], the binding result was “binds”.

B2: MreC from Pseudomonas aeruginosa, periplasmic form, residues 15-330 (domain or fragment, Pseudomonas aeruginosa PAO1, UniProt Q9HVU1 15-330, looked up)
chain: RFDYLEPVRSKLGMVLTPFYGLAEMPVRAWEGVRDQFSSRSELIAENERLKAESLLMQRRVQKLAALTEQNVRLRELLNSAALVDDKVLVSELIGVDPNPFTQRIMIDKGENDGVFVGQPVLDASGLMGQVVEVMPYTARVLLLTDTTHSIPVQVNRNGLRAIAVGTGNPERLELRYVADTADIKEGDLLVSSGLGQRFPAGYPVATVKEVIHDSGQPFAVVRAVPTAKMNRSRYVLLVFSDSRTPEQRANDAAEAQEEADKKAAAGAQAPQPAAQPAAAPSPATPAAQGAAQQPAAAPAPAPTQPAAPAANGGRR
notes: MreC, Pseudomonas aeruginosa PAO1, residues 15-330; lacks the first 14 amino acids (cytoplasmic residues and TM region); The results call it only 'MreCPa' (periplasmic form); also called MreCPa; MreCPa(15-330); not shown: GST, N-terminal, cleaved
In the case of B2, in series [2], the binding result was “binds”.
